Where no end group is shown, it is not given here.
How the values were obtained:
[1] = biological target: T1, recombinant human FVIIa (Homo sapiens, UniProt P08709); assay: FVIIa Binding ELISA (competition with TF183b); conditions: for affinity for FVIIa: compared with SEQ ID NO: 4
T1 construct: proteolysis of FVII to FVIIa at a site (Arg152-Ile153 for human FVII (hFVII))
T1 sequence (P08709 61-212 limits assumed): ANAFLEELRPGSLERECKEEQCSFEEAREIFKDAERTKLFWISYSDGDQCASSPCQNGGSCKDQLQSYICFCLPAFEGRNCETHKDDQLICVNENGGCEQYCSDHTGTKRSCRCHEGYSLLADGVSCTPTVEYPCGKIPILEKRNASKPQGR
T1 sequence (P08709 213-466 limits assumed): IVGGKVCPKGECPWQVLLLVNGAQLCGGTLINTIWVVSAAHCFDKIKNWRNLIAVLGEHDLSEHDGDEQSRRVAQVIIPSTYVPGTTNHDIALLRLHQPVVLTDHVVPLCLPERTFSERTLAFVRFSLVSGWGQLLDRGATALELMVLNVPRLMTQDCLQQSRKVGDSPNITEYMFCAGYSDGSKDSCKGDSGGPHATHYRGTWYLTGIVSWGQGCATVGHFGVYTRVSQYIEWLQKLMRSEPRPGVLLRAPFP
Protocol: FVIIa Binding ELISA—The ability of peptides to compete with biotinylated TF183 (TF183b) (or other peptides described herein that could be biotinylated as described) for binding to FVIIa was monitored using a FVIIa Binding ELISA or a TF-FVIIa Binding ELISA. Microtiter plates were coated overnight with 2 μg/ml recombinant human FVIIa or 2 μg/ml TF1-243 (Paborsky, L. R., et al., J. Biol. Chem. 266: 21911 (1991)) in 50 mM ammonium bicarbonate pH 9 at 4° C.; all other steps were performed at room temperature. Plates were then blocked with 1% BSA in Assay Buffer (50 mM HEPES, pH 7.2, 5 mM CaCl2, 150 mM NaCl). For the TF-FVIIa ELISA, recombinant human FVIIa (2 μg/ml) in 1% BSA in Assay Buffer was added for 30 min to the wells previously coated and blocked with TF to form the TF-FVIIa complex. Dilutions of peptide in Assay Buffer plus 0.05% Tween 20 were added to the microtiter plate along with 5 nM TF183b for 1 h. The microtiter plate was washed 3 times with Assay Buffer plus 0.05% Tween 20 and the biotinylated-peptide bound was detected with a Streptavidin/HRP conjugate (Streptavidin-POD, Roche Molecular Biochemicals). The amount of HRP bound was measured using ABTS/H2O2 substrate (Kirkegaard and Perry Laboratories) and monitoring the absorbance at 405 nm. The absorbance at 405 nm was plotted versus the concentration of peptide originally added to the well. Sigmoidal curves were fit to a four-parameter equation by nonlinear regression analysis (Marquardt, J. Soc. Indust. Appl. Math. 11:431-441 (1963); the concentration of each peptide required to give a half-maximal signal in the assay was calculated from the curves and is referred to as the IC50 value.

[2] = biological target: T2, TF-FVIIa (Homo sapiens, UniProt P08709); assay: FX Activation Assay; format: biochemical; conditions: compared with SEQ ID NO: 4
T2 construct: proteolysis of FVII to FVIIa at a site (Arg152-Ile153 for human FVII (hFVII))
T2 sequence (P13726 33-275 partner limits assumed, one chain of several): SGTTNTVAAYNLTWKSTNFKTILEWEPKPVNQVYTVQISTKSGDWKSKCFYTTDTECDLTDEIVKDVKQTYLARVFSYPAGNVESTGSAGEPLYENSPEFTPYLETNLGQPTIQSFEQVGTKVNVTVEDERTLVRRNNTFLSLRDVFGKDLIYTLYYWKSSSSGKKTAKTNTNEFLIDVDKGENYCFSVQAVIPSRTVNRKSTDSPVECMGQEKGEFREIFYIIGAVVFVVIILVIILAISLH
Protocol: FX Activation Assay—Activation of FX by TF-FVIIa was monitored at room temperature as a function of peptide concentration. Each assay sample contained 100 μl of 460 pM relipidated TF1-243 (Kelley, R. F., et al. Blood 89:3219-3227 (1997)) and 30 pM FVIIa in HBS/Ca buffer (20 mM HEPES, pH 7.4, 5 mM CaCl2, 150 mM NaCl, 0.1% PEG 8000); after 20 min, 25 μl of peptide diluted in HBS/Ca Buffer was added. Following a 30 min incubation the reaction was initiated by the addition of 25 μl of 1 μM FX in HBS/Ca (Note: this yields a final concentration of 306 pM TFPC, 20 pM FVIIa, and 166 nM FX). For kinetic analysis, the final concentration of FX was varied from between 20 and 500 nM. Aliquots of 25 μl were removed at 1, 3, 5, 7 and 9 min and quenched in 25 μl of 50 mM EDTA. The FXa generated in each aliquot could be measured by the addition of 100 μl of 250 μM Spectrozyme fXa (American Diagnostica), 50 mM Tris, pH 8, 50 mM NaCl, 0.0025% Triton X-100. The rate of FXa generated at each peptide concentration was proportional to the initial slope of the absorbance at 405 nm vs. time. Sigmoidal curves were fit to a four-parameter equation by nonlinear regression analysis (Marquardt, J. Soc. Indust. Appl. Math. 11:431-441 (1963)); the concentration of each peptide required to give a half-maximal signal in the assay was calculated from the curves and is referred to as the IC50 value.

[3] = biological target: T3, TF-FVIIa complex (Homo sapiens, UniProt P08709); assay: Peptide-phage binding to immobilized TF-FVIIa
T3 construct: proteolysis of FVII to FVIIa at a site (Arg152-Ile153 for human FVII (hFVII))
T3 sequence (P13726 33-275 partner limits assumed, one chain of several): as above
Protocol: (§1) Selection Conditions—TF1-243 (Paborsky, L. R., et al., J. Biol. Chem. 266: 21911 (1991)) or recombinant human FVIIa (2 μg/ml each) were immobilized directly to Maxisorp plates (Nunc) in 50 mM ammonium bicarbonate, pH 9.3 by incubating overnight at 4° C. Wells were blocked using Sorting Buffer (50 mM HEPES, pH 7.2, 5 mM CaCl2, 5 mM MgCl2, 150 mM NaCl, 1% BSA) for 1 h at 25° C. Recombinant human FVIIa (2 μg/ml) in Sorting Buffer was added for 30 min to wells previously coated and blocked with TF to form the TF-FVIIa complex. Phage from the libraries described above were pooled into 3 groups. Pool A contained XiCXjCXk where j=5-7; Pool B contained X4CX2GPX4CX4, X20 and XiCXjCXk where j=4; Pool E contained XiCXjCXk where j=8-10. Phage from each pool were incubated with the immobilized targets in Sorting Buffer for 3 h at 25° C.; generally about 5×10^10 phage were added at the beginning of each round. Unbound phage were removed by repetitive washing with Wash Buffer (50 mM HEPES, pH 7.2, 150 mM NaCl, 0.005% Tween 20); remaining phage were eluted with 500 mM KCl, 10 mM HCl, pH 2. The eluted phage were then propagated in XL1-Blue cells with VCSM13 helper phage (Stratagene) overnight at 37° C. Enrichment could be monitored by titering the number of phage which bound to a target coated well compare to a well coated with BSA. […]

[4] = biological target: T1, recombinant human FVIIa; assay: Peptide-phage binding to immobilized FVIIa; conditions: polyvalent phage display
Protocol: as §1

[5] = biological target: T4, TF (Homo sapiens, UniProt P13726); assay: Peptide-phage binding to wells coated with TF; conditions: polyvalent phage display; also BSA-coated wells
T4 construct: TF1-243 for membrane tissue factor composed of the extracellular domain and transmembrane amino acid residues 1-243
T4 sequence (P13726 33-275): as the sequence (P13726 33-275 partner limits assumed, one chain of several) above
Protocol: as §1

[6] = biological target: T5, BSA (bovine, UniProt P02769 25-607); assay: phage binding to coated wells
T5 construct: Control coat
T5 sequence (P02769 25-607 limits assumed): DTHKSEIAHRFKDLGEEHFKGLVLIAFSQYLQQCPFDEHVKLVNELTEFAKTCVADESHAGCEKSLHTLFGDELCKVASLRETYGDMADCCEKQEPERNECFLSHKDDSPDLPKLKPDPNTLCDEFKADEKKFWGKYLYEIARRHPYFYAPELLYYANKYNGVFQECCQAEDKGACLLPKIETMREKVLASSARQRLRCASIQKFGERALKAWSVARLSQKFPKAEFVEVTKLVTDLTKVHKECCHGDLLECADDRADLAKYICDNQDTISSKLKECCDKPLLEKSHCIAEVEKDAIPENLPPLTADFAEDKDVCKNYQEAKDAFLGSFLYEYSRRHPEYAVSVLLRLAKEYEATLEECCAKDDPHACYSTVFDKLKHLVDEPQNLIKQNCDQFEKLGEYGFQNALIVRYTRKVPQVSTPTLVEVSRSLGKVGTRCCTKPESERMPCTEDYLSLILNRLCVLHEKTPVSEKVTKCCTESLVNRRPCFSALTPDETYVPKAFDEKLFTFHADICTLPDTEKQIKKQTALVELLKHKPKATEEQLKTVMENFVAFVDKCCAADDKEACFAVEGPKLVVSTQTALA

EEWEVLCWTWETCER [TF183]
IC50 for FVIIa ([1]; compared with TF65 (SEQ ID NO: 4), values in FIG. 4, not given): decreased IC50

EEWEVLCWTWETCERGEG [TF100]
ability to inhibit FX activation [2]: increased ability to inhibit FX activation
affinity for FVIIa [1]: improved affinity

SAEWEVLCWTWEGCGSVGLV [TF53]
binding to covalently and noncovalently active site blocked TF-FVIIa ([3]; active site alkylated with biotinylated EGR chloromethylketone or blocked by TF7I-C): bound
binding of phage bearing the sequence to immobilized TF-FVIIa ([3]; polyvalent phage display): bound specifically
binding of phage bearing the sequence to immobilized FVIIa [4]: bound specifically
binding of phage bearing the sequence to wells coated with TF [5]: did not bind

TF100Z: TF100 peptide fused to the Z consensus domain of protein A (EEWEVLCWTWETCERGEGGGGSGG)
ability to inhibit FX activation [2]: increased ability to inhibit FX activation
affinity for FVIIa [1]: improved affinity

B1: TF53 peptide-phage (polyvalent phage clone from Pool A bearing SAEWEVLCWTWEGCGSVGLV) (peptide)
peptide: SAEWEVLCWTWEGCGSVGLV
modifications: cysteine pairing not given here; also: displayed on phage as a coat-protein fusion
binding result [6]: no binding
